Data as given in patent US20200262930A1 (YALE UNIVERSITY, published 2020).
Positions count from the first letter of the chain named.

B1: H11-L5 (humanized anti-YKL-40 antibody) (antibody, V domains shown)
VH: QIQLVQSGPEVKQPGASVKISCKASGYTFTNYGMNWVKQAPGQGLKWMGWINTYTGEPTYAQGFTGRFVFSLDTSASTAYLQISSLKAEDMSTYFCARLGYGKFYVMDYWGQGTSVTVSS
VL: DIVMTQTPLSLSVTPGQPASISCKSSQSLVHSNGNTYLHWYLQKPGQSPQLLIYKVSNRFSGVPDRFSGSGSGTDFTLKISRVEAEDVGVYYCSQSTHVTWTFGGGTKLEIK
notes: Humanized variant
B2: H12-L8 (humanized anti-YKL-40 antibody) (antibody, V domains shown)
VH: B1 VH with T28S, N31T, K46E, Q62D, G63D, T65K
VL: B1 VL with I2V, T7S, S12P, P15L, K24R, L42Q, K44R, Q50R
notes: Humanized variant
B3: H2-L1 (humanized anti-YKL-40 antibody) (antibody, V domains shown)
VH: B1 VH with P9S, V11L, Q13K, K38R, K46E, A76V, M91T, T93V
VL: B1 VL with I2V, T7S, S12P, P15L, K24R, H39N, L42Q, K44R, Q50R, Y92F
notes: Humanized variant
B4: H1-L1 (humanized anti-YKL-40 antibody) (antibody, V domains shown)
VH: QIQLVQSGSELKKPGASVKISCKASGYTFTNYGMNWVRQAPGQGLEWMGWINTYTGEPTYADDFKGRFVFSLDTSVSTAYLQISSLKAEDTSVYFCARLGYGKFYVMDYWGQGTSVTVSS
VL: B1 VL with I2V, T7S, S12P, P15L, K24R, H39N, L42Q, K44R, Q50R, Y92F
notes: Humanized, kappa light chain, human IgG (detected with goat anti-human IgG-HRP; the PK assay uses an anti-IgG1 capture antibody); also called anti-YKL-40 H1-L1
B5: H4-L1 (humanized anti-YKL-40 antibody) (antibody, V domains shown)
VH: B4 VH with E46K
VL: B1 VL with I2V, T7S, S12P, P15L, K24R, H39N, L42Q, K44R, Q50R, Y92F
notes: Humanized, human IgG (detected with goat anti-human IgG-HRP)
B6: H11-L1 (humanized anti-YKL-40 antibody) (antibody, V domains shown)
VH: B1 VH
VL: B1 VL with I2V, T7S, S12P, P15L, K24R, H39N, L42Q, K44R, Q50R, Y92F
notes: Humanized, human IgG

Target: T1, murine BRP-39 (murine homologue of CHI3L1/YKL-40) (murine, UniProt Q61362 30-389, limits assumed)
T1 construct: also called murine YKL-40
T1 sequence (Q61362 30-389 limits assumed): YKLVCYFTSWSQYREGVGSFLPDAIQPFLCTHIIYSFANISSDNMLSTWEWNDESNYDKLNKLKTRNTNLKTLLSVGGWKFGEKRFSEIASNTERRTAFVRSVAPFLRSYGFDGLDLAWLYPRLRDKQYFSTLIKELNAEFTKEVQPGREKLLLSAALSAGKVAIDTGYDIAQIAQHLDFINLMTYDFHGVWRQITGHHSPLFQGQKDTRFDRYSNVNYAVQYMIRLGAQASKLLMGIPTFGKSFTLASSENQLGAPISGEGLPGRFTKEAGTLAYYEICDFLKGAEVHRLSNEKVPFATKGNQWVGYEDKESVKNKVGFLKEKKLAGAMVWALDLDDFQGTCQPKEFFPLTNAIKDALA
Assay: titration ELISA against murine BRP-39

Row | Binder | binding result
1 | B1 | binds
2 | B2 | binds
3 | B3 | binds

Target: T2, primate (Cynomolgus monkey) CHI3L1/YKL-40 (Cynomolgus monkey, UniProt A0A7N9DGM0 12-373)
T2 construct: also called primate CHI3L1/YKL-40
Assay: titration ELISA

Row | Binder | fold difference in affinity among species (human highest)
4 | B4 | ≤ 2 fold
5 | B5 | ≤ 2 fold
6 | B6 | ≤ 2 fold

Target: T1, murine BRP-39 (murine homologue of …)
Assay: titration ELISA

Row | Binder | fold difference in affinity among species (human highest)
7 | B4 | ≤ 2 fold
8 | B5 | ≤ 2 fold
9 | B6 | ≤ 2 fold

Target: T3, human CHI3L1/YKL-40 (human, UniProt P36222 22-383)
T3 construct: also called human YKL-40
T3 sequence (P36222 22-383 limits assumed): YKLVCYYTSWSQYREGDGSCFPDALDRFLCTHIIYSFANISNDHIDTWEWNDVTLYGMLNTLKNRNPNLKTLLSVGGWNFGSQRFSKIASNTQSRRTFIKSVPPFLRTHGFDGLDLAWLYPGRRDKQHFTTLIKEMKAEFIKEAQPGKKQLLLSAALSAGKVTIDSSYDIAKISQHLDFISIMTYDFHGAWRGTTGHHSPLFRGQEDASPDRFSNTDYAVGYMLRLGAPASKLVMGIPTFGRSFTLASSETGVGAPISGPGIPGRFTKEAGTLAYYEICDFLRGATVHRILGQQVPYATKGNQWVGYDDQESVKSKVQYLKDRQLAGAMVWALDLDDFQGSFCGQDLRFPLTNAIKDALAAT
Assay: titration ELISA against human YKL-40

Row | Binder | binding result
10 | B4 | binds
11 | B1 | binds
12 | B5 | binds
13 | B2 | binds
14 | B6 | binds
15 | B3 | binds
